Consider one substance from patent US20210009703A1.

The assay deals with cynomolgus CD25 expressed on cells (Cynomolgus monkey) (UniProt H6WS54). Briefly: flow cytometry on cyno-CD25-CHO-S cells, 100 nM antibody, anti-human R-PE.

On to IgG1 Isotype (antibody), for which the MFI was 82.
